Measurements from doi:10.1101/2021.07.08.451649 (bioRxiv, 2021).

Target: SARS-CoV-2 HexaPro spike glycoprotein (SARS-CoV-2, ancestral (Wuhan-Hu-1), …, stabilised)
Assay: cryo-EM structure

B1: PVI.V6-14 Fab (Fab, V domains shown)
VH: QVQLQESGPGLVKPSETLSLTCTVSGGSISSSSYYWGWIRQPPGKGLEWIGSIYYSGSTYYNPSLKSRVTISVDTSKNQFSLKLSSVTAADTAVYYCARCRPEYYFGSGSYLDFDY
VL: DIQMTQSPSSVSASVGDRVTITCRASQGISSWLAWYQQKPGKAPKLLIYAASSLQSGVPSRFSGSGSGTDFTLTISSLQPEDFATYYCQQANSFPLTFGGGTKVEIK
Q: With B1 as the binder, how does the “stoichiometry N” value read?
A: Its value is 2 Fabs per spike trimer.
